Measured values published in ChEMBL document CHEMBL1132473.

Legend:
[1] = target: 4-aminobutyrate aminotransferase, mitochondrial (Sus scrofa) (UniProt P80147)
Description: (§1) Compound was tested for the inhibition of Gamma-amino-N-butyrate transaminase (GABA-AT)

[2] = system: N[C@@H]1C=C[C@H](C(=O)O)C1
Description: as §1

[3] = system: N[C@@H]1C=C[C@@H](C(=O)O)C1
[4] = system: N[C@H]1C=C[C@@H](C(=O)O)C1

4-aminobutyrate aminotransferase, mitochondrial (Sus scrofa), P80147, sequence (P80147 whole entry): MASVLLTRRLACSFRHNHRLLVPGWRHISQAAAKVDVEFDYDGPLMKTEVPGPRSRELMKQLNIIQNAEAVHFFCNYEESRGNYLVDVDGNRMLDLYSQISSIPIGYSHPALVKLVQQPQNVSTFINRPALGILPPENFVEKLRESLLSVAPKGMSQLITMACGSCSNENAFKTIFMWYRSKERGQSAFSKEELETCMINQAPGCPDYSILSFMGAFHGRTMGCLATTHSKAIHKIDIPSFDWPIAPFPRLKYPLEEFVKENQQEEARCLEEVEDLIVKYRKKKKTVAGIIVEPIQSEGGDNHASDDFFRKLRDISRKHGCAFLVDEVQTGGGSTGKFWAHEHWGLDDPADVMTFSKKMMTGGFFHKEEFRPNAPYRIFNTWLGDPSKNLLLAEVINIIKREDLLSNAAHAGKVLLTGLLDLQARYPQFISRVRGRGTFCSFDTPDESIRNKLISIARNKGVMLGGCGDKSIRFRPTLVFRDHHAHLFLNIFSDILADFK
4-aminobutyrate aminotransferase, mitochondrial (Sus scrofa), sequence (P80147 whole entry): as above
Description for NC1C=CC(C(=O)O)C1: as §1
Description for N[C@@H]1CC=C(C(=O)O)C1: as §1

Q: With `N[C@@H]1C=C[C@H](C(=O)O)C1` as the molecule, how does the k cat [1] read?
A: 0.195 s⁻¹

Q: Which k cat [1] does the source give for `N[C@@H]1CC=C(C(=O)O)C1` here?
A: 0.625 s⁻¹

Q: Which Km (N[C@@H]1CC=C(C(=O)O)C1) does the source give for “4-aminobutyrate aminotransferase, mitochondrial (Sus scrofa), P80147” here?
A: 1600 µM

Q: And the Km (NC1C=CC(C(=O)O)C1)?
A: 2300 µM

Q: And the Km [2]?
A: 100 µM

Q: What about the Km (N[C@H]1CC=C(C(=O)O)C1) of the same molecule?
A: No turn over

Q: What about the Km [3] of the same molecule?
A: No turn over

Q: What about the Km [4] of the same molecule?
A: No turn over

Q: `NC1C=CC(C(=O)O)C1` (racemic) was tested. Which k cat [1] did it give?
A: 0.667 s⁻¹
